Results: the supplement of paper PMC7125110
± gives the standard error. Fewer inactive variants are shown than the library holds.

B1: glmS ribozyme (parent)
chain: AUAAAAGCGCCAGAACUACAGAAAUGUAGUUGACGAGGAGGAGGUUUAUCGAAUUUUCGGCGGAUGCCUCCAAA

What was measured:
Details in all cases: with glucosamine-6-phosphate
glucosamine-6-phosphate [1] = variants of: B1; experiment: self-cleavage kobs at 640 uM GlcN6P; higher = faster cleavage; RNA array
Procedure, shortened: (§1)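 Tracking of barcoded ribozyme variants used a hybridised Cy3 probe at 37 °C, after in situ transcription by E. coli RNA polymerase on sequenced MiSeq chips. The flowed solution held 40 μM to 10 mM glucosamine-6-phosphate in HEPES/KCl/Mg(OAc)2 buffer, and imaging ran over ~14 h. kobs was taken from exponential decay fits of normalised per-tile medians, and kcat and KM from weighted Michaelis–Menten fits.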

glucosamine-6-phosphate [2] = variants of: B1; experiment: self-cleavage kobs at 2500 uM GlcN6P; higher = faster cleavage; RNA array
Procedure, shortened: as §1

glucosamine-6-phosphate [3] = variants of: B1; experiment: self-cleavage kobs at 10000 uM GlcN6P; higher = faster cleavage; RNA array
Procedure, shortened: as §1

| Variant | self-cleavage kobs at 640 uM GlcN6P (glucosamine-6-phosphate [1]) [s⁻¹] | self-cleavage kobs at 2500 uM GlcN6P (glucosamine-6-phosphate [2]) [s⁻¹] | self-cleavage kobs at 10000 uM GlcN6P (glucosamine-6-phosphate [3]) [s⁻¹] |
| --- | --- | --- | --- |
| G13C U30A G41U G63A A64C | < 1e-05 | < 1e-05 |  |
| G35A G51A U54A G63U | < 1e-05 |  |  |
| G29U A52U U65G C68G | 0.000163 ± 5.2e-05 | 0.000217 ± 5.1e-05 |  |
| A12U A39G U47G U54A U69A | 9.73e-05 ± 2e-05 | 8.59e-05 ± 2.7e-05 |  |
| C8A U47C G51A | < 1e-05 | < 1e-05 |  |
| A14C U30A G63A C67A | < 1e-05 |  |  |
| G9A C11A A39U G41A A42U C50A U57G | < 1e-05 | < 1e-05 |  |
| G29U C34U U47G C68U | 5.56e-05 ± 2.3e-05 |  |  |
| C16U G29A U31G | 0.00216 ± 0.00066 | 0.0232 ± 0.011 |  |
| C11G A15C U30G A52U | < 1e-05 |  |  |
| A14C U30C G38U A39U A53U U55G | < 1e-05 | < 1e-05 |  |
| G7U A48U C50A C67G | 0.000229 ± 8.3e-05 |  |  |
| A6U C11A A33G U47C U49A G51U A53U G59U | < 1e-05 | < 1e-05 |  |
| G32A G37C A42C | < 1e-05 |  |  |
| G29U A36G A53U G62A | < 1e-05 | < 1e-05 |  |
| U31C A53G U65G | 0.000195 ± 3.6e-05 | 0.000454 ± 7.6e-05 | 0.000519 ± 9.8e-05 |
| A6C G38A A52U C70U | < 1e-05 |  |  |

| Variant | self-cleavage kobs at 640 uM GlcN6P (glucosamine-6-phosphate [1]) [s⁻¹] | self-cleavage kobs at 2500 uM GlcN6P (glucosamine-6-phosphate [2]) [s⁻¹] | self-cleavage kobs at 10000 uM GlcN6P (glucosamine-6-phosphate [3]) [s⁻¹] |
| --- | --- | --- | --- |
| G44A U45C C61A | < 1e-05 | < 1e-05 |  |
| U54C G60C C67G | < 1e-05 |  |  |
| C8A C34A G59U A64G | < 1e-05 | < 1e-05 |  |
| G32C A42U G60A | < 1e-05 |  |  |
| C11G G29U A42C | < 1e-05 | < 1e-05 |  |
| A6G G41A C50A G62U | < 1e-05 |  |  |
| U45C U46G U57A | < 1e-05 |  |  |
| C8U G9U G13U G41U A42U C50G C68U | < 1e-05 | < 1e-05 |  |
| G13C G59U C67A C71U | 5.98e-05 ± 2.4e-05 |  |  |
| G38U C50U C58A U69A | 0.000295 ± 9.9e-05 | 0.000466 ± 0.00018 |  |
| A6G A12U U56A C71U | 8.01e-05 ± 2.1e-05 | 9.57e-05 ± 2.8e-05 |  |
| G9U A12C G51C C67U | < 1e-05 | < 1e-05 |  |
| G9U A14U C16A G32U A36G | < 1e-05 |  |  |
| G43C U45G G63C U69G | < 1e-05 |  |  |
| C10G U30C G38U | < 1e-05 |  |  |
| A6G A52G G60A | < 1e-05 | < 1e-05 |  |
